Experimental data published in patent US20200231671A1 (E R SQUIBB AND SONS L L C, published 2020).
Residue numbers refer to the chain shown, from its start. Where no end group is shown, it is not given here.

B1: 26H10 human monoclonal antibody (antibody, IgG1, V domains shown)
VH: QVQLVESGGGVVQPGRSLRLSCAASGFTFSSYGMHWVRQAPGKGLEWVAVIWYDGSNKYYADSVKGRFTISRDNSKNTLYLQMNSLRAEDTAVYYCAREWAVASWDYGMDVWGQGTTVTVSS
VL: not shown
notes: also called 26H10-FITC
B2: 25F7 human monoclonal antibody (antibody, IgG1, V domains shown)
VH: QVQLQQWGAGLLKPSETLSLTCAVYGGSFSDYYWNWIRQPPGKGLEWIGEINHNGNTNSNPSLKSRVTLSLDTSKNQFSLKLRSVTAADTAVYYCAFGYSDYEYNWFDPWGQGTLVTVSS
VL: EIVLTQSPATLSLSPGERATLSCRASQSISSYLAWYQQKPGQAPRLLIYDASNRATGIPARFSGSGSGTDFTLTISSLEPEDFAVYYCQQRSNWPLTFGQGTNLEIK
notes: also called 25F7-FITC (IgG1 version)
B3: 8B7 human monoclonal antibody (antibody, IgG4, V domains shown)
VH: QVQLQQWGAGLLKPSETLSLTCAVYGGSFSGYYWSWIRQPPGKGLEWIGEINHRGNTNCNPSLKSRVTISGDTSKKQFALKLNSVTAADTAVYYCARGYDILTGYYEDSWGPGTLVTVSS
VL: B2 VL with I29V, D50N, Q100G, N103K, L104V
notes: also called 8B7-FITC
B4: 25E3 human monoclonal antibody (antibody, IgG1, V domains shown)
VH: EVQLVESGGGVVRPGGSLRLSCAASGFTFDDYGMSWVRQAPGKGLEWVSGINWNGGSTYYADSVKGRFTISGDNAKNSLYLQMNSLRAEDTALYYCTTGGYWGQGTLVTVSS
VL: AIQLTQSPSSLSASVGDRVTITCRASQGIRSALAWYQQKPGKAPKLLIYDASSLESGVPSRFSGSGSGTDFTLTISSLQPEDFATYYCQQFNSYPYTFGQGTKLEIK

Legend:
[1] = target: T1, LAG-3 extra loop scan peptide LAPGPHPAAPSS (human, also: conjugated to biotin, site not given here); assay: peptide scan ELISA
T1 construct: 12-mer overlapping scan peptide of the extra loop
T1 peptide: LAPGPHPAAPSS
Protocol: (§1) In the LAG-3 protein, the immunoglobulin-like first domain of the extracellular region contains an exposed “extra loop” having the amino acid sequence: […] (SEQ ID NO: 79). To examine the binding of 25E3, 25F7, 8B7 and 26H10 to this region of LAG-3, and map the epitope bound by each antibody, a peptide scan experiment was performed across this region. A series of 10 overlapping peptides that scanned across the full length of the extra loop sequence were prepared and conjugated to biotin. For ELISA analysis, microtiter plates pre-coated with streptavidin (Sigma-Aldrich, Cat # M5432) were used to capture the biotinylated loop peptide-conjugates applied in a 100 μl volume at a concentration of 2 μg/mL and incubated 18 hours at 4° C., after which the plates were washed 3 times and blocked at room temperature for 1 hour with blocking buffer (1×PBS+10% FBS). Next, human anti-LAG-3 antibodies serially diluted 3-fold in blocking buffer from 10 μg/mL were applied and the plates were incubated at room temperature for 2 hours and then washed three times. To detect bound human antibody a HRP-conjugated goat anti-human kappa light chain antibody (Bethyl Laboratories, Cat # A80-115P) was diluted to 1 μg/mL in blocking buffer and applied to assay wells for 1 hour followed by three washes and application of TMB substrate (eBioscience, Cat #00-4201-56). Optical density readings at 650 nm wavelength were made on a Spectramax 340PC spectrophotometer ([…].).

[2] = target: T2, LAG-3 extra loop scan peptide PAAPSSWGPRPR (human, also: conjugated to biotin); assay: peptide scan ELISA
T2 construct: 12-mer overlapping scan peptide of the extra loop
T2 peptide: PAAPSSWGPRPR
Protocol: as §1

[3] = target: T3, LAG-3 extra loop scan peptide PAAAPGHPLAPG (human, also: conjugated to biotin, site not given here); assay: peptide scan ELISA
T3 construct: 12-mer overlapping scan peptide of the extra loop
T3 peptide: PAAAPGHPLAPG
Protocol: as §1

[4] = target: T4, LAG-3 extra loop scan peptide PGPHPAAPSSWG (human, also: conjugated to biotin); assay: peptide scan ELISA
T4 construct: 12-mer overlapping scan peptide of the extra loop
T4 peptide: PGPHPAAPSSWG
Protocol: as §1

[5] = target: T5, LAG-3 extra loop scan peptide PHPAAPSSWGPR (human, also: conjugated to biotin); assay: peptide scan ELISA
T5 construct: 12-mer overlapping scan peptide of the extra loop
T5 peptide: PHPAAPSSWGPR
Protocol: as §1

[6] = target: T6, LAG-3 extra loop scan peptide GPPAAAPGHPLA (human, also: conjugated to biotin, site not given here); assay: peptide scan ELISA
T6 construct: 12-mer overlapping scan peptide of the extra loop
T6 peptide: GPPAAAPGHPLA
Protocol: as §1

[7] = target: T7, LAG-3 extra loop scan peptide PGHPLAPGPHPA (human, also: conjugated to biotin); assay: peptide scan ELISA
T7 construct: 12-mer overlapping scan peptide of the extra loop
T7 peptide: PGHPLAPGPHPA
Protocol: as §1

[8] = target: T8, LAG-3 extra loop scan peptide APSSWGPRPRRY (human, also: conjugated to biotin, site not given here); assay: peptide scan ELISA
T8 construct: 12-mer overlapping scan peptide of the extra loop
T8 peptide: APSSWGPRPRRY
Protocol: as §1

[9] = target: T9, LAG-3 extra loop scan peptide HPLAPGPHPAAP (human, also: conjugated to biotin, site not given here); assay: peptide scan ELISA
T9 construct: 12-mer overlapping scan peptide of the extra loop
T9 peptide: HPLAPGPHPAAP
Protocol: as §1

[10] = target: T10, LAG-3 extra loop scan peptide AAPGHPLAPGPH (human, also: conjugated to biotin, site not given here); assay: peptide scan ELISA
T10 construct: 12-mer overlapping scan peptide of the extra loop
T10 peptide: AAPGHPLAPGPH
Protocol: as §1

[11] = target: T11, human LAG-3 (cell surface) (human, UniProt P18627 23-525); assay: flow cytometry, activated human CD4+ T cells
T11 construct: whole, on cells; also called CHO-human LAG-3
T11 sequence (looked up): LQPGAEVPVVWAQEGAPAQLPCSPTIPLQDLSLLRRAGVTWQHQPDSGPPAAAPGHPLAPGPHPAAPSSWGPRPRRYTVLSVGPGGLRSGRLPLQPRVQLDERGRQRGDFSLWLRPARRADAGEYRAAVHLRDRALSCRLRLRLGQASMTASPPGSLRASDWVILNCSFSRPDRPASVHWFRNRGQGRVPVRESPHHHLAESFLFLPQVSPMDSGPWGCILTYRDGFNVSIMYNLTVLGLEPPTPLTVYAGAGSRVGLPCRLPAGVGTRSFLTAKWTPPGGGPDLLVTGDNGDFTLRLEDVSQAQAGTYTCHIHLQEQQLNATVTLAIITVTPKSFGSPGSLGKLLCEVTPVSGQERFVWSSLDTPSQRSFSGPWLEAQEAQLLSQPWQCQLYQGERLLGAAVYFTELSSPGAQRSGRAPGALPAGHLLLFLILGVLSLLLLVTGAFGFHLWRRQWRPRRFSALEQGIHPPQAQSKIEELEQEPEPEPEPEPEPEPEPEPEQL
Protocol: To test the ability of the antibodies to bind to cell surface LAG-3 protein, the antibodies were incubated with a CHO cell line that had been transfected to express human LAG-3 on the cell surface. The 25F7, 26H10, 25E3, 8B7, 11F2 and 17E5 monoclonal antibodies were serially diluted with cold lx PFAE buffer (1×PBS+2% FBS, 0.02% sodium azide, 2 mM Na EDTA). For the binding reaction, 50 μl of diluted antibody solution was added to a 50 μl cell suspension containing 2×10⁵ cells and the mixture was incubated on ice for 30 minutes. The cells were then washed two times with 1×PFAE buffer. A 1:100 dilution of FITC-labeled goat anti-human kappa light chain antibody (Bethyl Laboratories, Inc., Cat. # A80-115F) was added and the mixture was incubated for 30 minutes at 4° C., followed by washing twice with cold 1×PFAE buffer. After the final wash, 150 μl of cold 1×PFAE containing 10 μg/mL propidium iodide (Roche Applied Science, Cat #1 348 639) was added to each solution and analysis of antibody binding was carried out by flow cytometry using a FACScalibur flow cytometer (BD Bioscience).
To test the ability of the antibodies to bind to native human LAG-3 on the surface of activated human T cells, resting CD4⁺ T cells were isolated from purified peripheral blood mononuclear cells and subjected to three days of stimulation with a combination of anti-CD3 and anti-CD28 antibodies affixed to polystyrene beads. The 25F7, 8B7 and 26H10 monoclonal antibodies were serially diluted with cold 1×PFAE buffer (1×PBS+2% FBS, 0.02% sodium azide, 2 mM Na EDTA). For the binding reaction, 50 μl of diluted antibody solution was mixed with 50 μl of PE-labeled anti-human CD4 (BD Bioscience, Cat # 555347). Activated T cells were processed by the same protocol described above. The analysis of antibody binding was conducted as described above.

| Binder | binding result [1] | binding result [2] | binding result [3] | binding result [4] | binding result [5] | binding result [6] | binding result [7] | binding result [8] | binding result [9] | binding result [10] | EC50 [11] [pM] |
| --- | --- | --- | --- | --- | --- | --- | --- | --- | --- | --- | --- |
| B1 | no binding (tested: 10 µg/mL) | no binding (tested: 10 µg/mL) | no binding (tested: 10 µg/mL) | no binding (tested: 10 µg/mL) | no binding (tested: 10 µg/mL) | no binding (tested: 10 µg/mL) | no binding (tested: 10 µg/mL) | no binding (tested: 10 µg/mL) | no binding (tested: 10 µg/mL) | no binding (tested: 10 µg/mL) | 410 to 840 |
| B2 | – | binds | – | binds | binds | – | – | – | – | – | 270 to 450 |
| B3 | – | binds | – | binds | binds | – | – | – | – | – | 690 to 1800 |
| B4 | – | – | binds | – | – | – | binds | – | – | binds | – |
